The data set deals with the molecule itself. The data set is described as follows: negative stain EM; 1 = filaments observed (self-assembly). An excerpt: The designs were expressed in Escherichia coli under the control of a T7 promoter and purified using immobilized metal affinity chromatography (IMAC). […] IMAC eluates were concentrated, and filament formation was monitored by negative stain electron microscopy (EM); insoluble designs were characterized by EM either directly in the initial insoluble fraction, or after solubilization in guanidine hydrochloride, IMAC, and subsequent removal of denaturant.
Negative Stain Electron Microscopy. Soluble fractions were concentrated and insoluble fractions were resuspended in buffer (25 mM Tris, 75 mM NaCl, pH 8) for EM screening. A drop of 6 μL (1 μl sample instantly diluted with 5 μl of buffer) was applied on negatively glow discharged, carbon-coated 200-mesh copper grids (Ted Pella, Inc.), washed with Milli-Q™ Water and stained using 0.75% uranyl formate as described previously (28). The screening was performed on either a 120 kV Tecnai Spirit™ T12 transmission electron microscope (FEI, Hillsboro, Oreg.) or a 100 kV Morgagni M268 transmission electron microscope (FEI, Hillsboro, Oreg.). Images were recorded on a bottom mount Teitz CMOS™ 4 k camera system. The contrast of the images was enhanced in the Fiji software (29) for clarity.

B1: DHF52 (designed binder)
chain: SLKELLELERVAVEAIVAAAEGNTMEVIEQLQRAMLIAVLSGTTSAVKLALEVVARVAIEAARIGNTDAVRIALSVALTIAVISGTTEAVKLALEVVARVAIEAARRGNTDAVREALEVALEIARESGTEEAVRLALEVVKRVSDEAKKQGNEDAVKEAEEVRKKIEEESG
notes: vector pCDB24 (SUMO fusion); forms a homo-polymer
Turning to B1, the binding result was “binds”.

B2: DHF50 (designed binder)
chain: AIVQLMTVIAMAVIANALLIRAIVNGSAEDLEKALRTAEEAAREAKKVLEQAEKDGDPEVALRAVELVVLVAVNLLLIAKESGSEEALERALRVAEEAARLAKRVLELAEKVGDPEVALRAVELVVRVAELLLRIAKESGSEEALERALRVAEEAARLAKRVLELAEKQGDPEVARRAVELVKRVAELLERIARESGSEEAKERAERVREEARELQERVKELREREG
notes: as for B1
In the case of B2, the binding result is “binds”.

B3: DHF4 (designed binder)
chain: ADEELARILIEMAKTAAEAAQMAAEVTGDPRVRLLAVRLKMLALMAALEVILDPSSSDVNEALKLIVEAIEAAVKALLAAVRTGDPEVRELARELVRLAVEAAEEVQRNPSSSDVNEALKLIVEAIEAAVRALEAAERTGDPEVRELARELVRLAVEAAEEVQRNPSSEEVNEALKKIVKAIQEAVESLREAEESGDPEKREKARERVREAVERAEEVQRN
notes: as for B1
Regarding B3, the binding result is “binds”.

B4: DHF36 (designed binder)
chain: MVEKNMLRLRLVKIVVENAKTKGDDTEEAREAAREAFEKVRVAAEVAGIDSSEVLELAIRLIKEVVLLALLEGYDISEAARAAAEAFVRVAVAAKIAGITSSEVLELAIRLIKEVVMNAMMEGYDISEAARAAAEAFKLVAEAAKRAGITSSETLKRAIEEIRKRVEEAQREGNNISVAALEAADEFRKKAEELKRRGLE
notes: vector pET28b; forms a homo-polymer
B4: the binding result is “binds”.

B5: DHF44 (designed binder)
chain: AVLALMVVNLLVQLAIELLSRAMLKGSAEDLEKALRTAEEAAREAKKVLEQAEKDGDPEVALLAVELVVVVATILLMIAKISGSEEALERALRVAEEAARLAKRVLELAEKQGDPEVALRAVELVVRVAELLLRIAKESGSEEALERALRVAEEAARLAKRVLELAEKQGDPEVARRAVELVKRVAELLERIARESGSEEAKERAERVREEARELQERVKELREREG
notes: as for B1
With B5, the binding result is “binds”.

B6: DHF47 (designed binder)
chain: INLTIAILVAILVATMVELVAIRAQLEGNPELAASAMELRRAVEEAIEEAEKQGNPLLVLWVAVAAKVAAEVIKVAIQAEKEGNRDLFRAALELVRAVIEAIEEAVKQGNPELVEWVARAAKVAAEVIKVAIQAEKEGNRDLFRAALELVRAVIEAIEEAVKQGNPELVERVARLAKKAAELIKRAIRAEKEGNRDERREALERVREVIERIEELVRQGN
notes: as for B1
As to B6, the binding result was “binds”.

B7: DHF5 (designed binder)
chain: ALDLLARVIVLVMEAVKLLVLAVIMGLEMILRVALRLAEEAARAAKAVLLLAEVEGDPEVALKAVELVVRVAELLLRIAKESGSEEALERALRVAEEAARLAKRVLELAEKQGDPEVALRAVELVVRVAELLLRIAKESGSEEALERALRVAEEAARLAKRVLELAEKQGDPEVARRAVELVKRVAELLERIARESGSEEAKERAERVREEARELQERVKELREREG
notes: as for B1
Take B7: the binding result was “binds”.

B8: DHF51 (designed binder)
chain: AVDQMIRVIVLVKEAEEALLNAKLLGSEMALTLALRTAEEAARVAKTVLELAEKDGDPVVALLAVELVVRVAELLLRIAKESGSEEALERALRVAEEAARLAKRVLELAEKQGDPEVALRAVELVVRVAELLLRIAKESGSEEALERALRVAEEAARLAKRVLELAEKQGDPEVARRAVELVKRVAELLERIARESGSEEAKERAERVREEARELQERVKELREREG
notes: as for B1
B8: the binding result is listed as “binds”.

B9: DHF40 (designed binder)
chain: SSEKEELRERLVKICVELAKLKGDDTLKAAEAAEEAFRLVVLAAMLAGIDSSEVLELAIRLIKTCVVLAAMEGYDISEACRAAAEAFTRVAMAALRAGITSSLVLKAAIELIKECVLNAAVEGYDISEACRAAAEAFKRVAEAAKRAGITSLETLLRAIEEIRKRVEEAQREGNDISEACRQAAEEFRKKAEELKRRGDV
notes: as for B1
With B9, the binding result was “binds”.

B10: DHF34 (designed binder)
chain: AEVILLVAVLLLAKAVEAVLMGNRVAFRLAAELALRVAKLLVIMAKVEGDPELVLEAAKVALVVASLAALNGDKEVFKKAAESALEVAKRLVEVASKEGDPELVLEAAKVALKVAELAAKNGDKEVFKKAAESALEVAKRLVEVASKEGDPELVEEAAKVAEEVRKLAKKQGDEEVYEKARETAREVKEELKRVREEKG
notes: as for B1
On to B10, for which the binding result is reported as “binds”.

B11: DHF58 (designed binder)
chain: MELLRVVMLVKEAEELLTLAVIKGSEDDLQKALRTAVEAAREAVKVLLQAVKRGDPEVALRAVELVVRVAELLLRIAKESGSELALKMALLVAEEAARLAKIVLELAEKQGDPEVALRAVELVVRVAELLLRIAKESGSEEALERALRVAEEAARLAKRVLELAEKQGDPEVARRAVELVKRVAELLERIARESGSEEAKERAERVREEARELQERVKELREREGLE
notes: vector pET28b; forms a homo-polymer; cryoEM PDB 6E9T (4-repeat structure); also called DHF58 four-repeat protomer
In the case of B11, the binding result is “binds”.

B12: DHF31 (designed binder)
chain: AAIETLNVMTLVMLALLLLIQAISKGSAEDLEKALRTAEEAAREAKKVLEQAEKEGDPDQALKAVELVVVVAQLLLQIAIASGSREALERALRVAEEAARLAKRVLELAEKQGDPEVALRAVELVVRVAELLLRIAKESGSEEALERALRVAEEAARLAKRVLELAEKQGDPEVARRAVELVKRVAELLERIARESGSEEAKERAERVREEARELQERVKELREREG
notes: as for B1
Consider B12, for which the binding result is “binds”.

B13: DHF48 (designed binder)
chain: MAVEEAIRVMRLVREAEQVLLQAKMMGSERVLEMALRTAEEAAREAKLVLAVAELEGDPVVALIAVELVVRVAELLLRIAKESGSEEALERALRVAEEAARLAKRVLELAEKQGDPEVALRAVELVVRVAELLLRIAKESGSEEALERALRVAEEAARLAKRVLELAEKQGDPEVARRAVELVKRVAELLERIARESGSEEAKERAERVREEARELQERVKELREREGLE
notes: as for B4
Regarding B13, the binding result is “binds”.

B14: DHF49 (designed binder)
chain: MGHHHHHHSSGSDEEEARELIERAAEAAKRAVEAAERTGDPNVVELAKELVRLAQEAAEEVKRDPSSSDVNEALKLIVEAIEAAVRALEAAERTGDPVVRLLARELVRLAVEAAEEVQRNPSSSDVNEALKLIVEAIEAAVRALEAAERTGDPEVRELARELVRLAVEAAEEVQRNPSSEQVNEALKKIVKAIQEAVESLREAEESGDPEKRDKARLRVLEAVIRAMVVQIN
notes: as for B4
For B14, the binding result is reported as “binds”.

B15: DHF46 (designed binder)
chain: MGHHHHHHSSGTKEERVLLMKVAILAIVAAKKGNTDEVRKALELALLIAKVSGTTEAVKLALEVVARVAIEAARRGNTDAVREALEVALEIARESGTTEAVKLALEVVARVAIEAARRGNTEAVVEALLVALEIAKESGTEEAVRLALEVVKRVSNEALKQGNVDAVKVALEVRKMIEELSG
notes: vector pET28b; forms a homo-polymer; cryoEM PDB 6E9R
With B15, the binding result was “binds”.

B16: DHF38 (designed binder)
chain: AEELLKRVEKLVKEAEELLRQAMKKGSEELLEVALVVAQMAAREAKKVLTMAEVEGDPEVALRAVELVVRVAELLLRIALVSGSEEALERALRVAEEAARLAKRVLELAESQGDPEVALRAVELVVRVAELLLLIAKVSGSEEALERALRVAEEAARLAKRVLELAEKQGDPAVAILAVMLVKRVAELLENIARESGSEEAKERAERVREEARELQERVKELKERAG
notes: vector pCDB24 (SUMO fusion, removed with SUMO protease); forms a homo-polymer; cryoEM PDB 6E9Y
With B16, the binding result is given as “binds”.

The record behind these values is US20210324011A1 (University of Washington, published 2021).
